Drawing on article PMC9375587, this text covers Kd, koff and kon for two substances.

In experiment [1] the target is 2 CP-dimeric MPO complex (CP-MPO-MPO-CP) (human (endogenous in donor blood plasma) | human) (UniProt P00450). The experiment is described as follows: solid-phase enzyme assay.
For experiment [2], the target named is Myeloperoxidase (MPO), native, dimeric (human) (UniProt P05164). The experiment is described as follows: SPR. Background: SPR reads the build-up and loss of mass on a sensor chip optically.

A word on the Kd: it is the equilibrium constant for the complex coming apart. Low values mean higher affinity, high ones lower affinity. The substance Alpha-thrombin (FIIa) (enzyme) returned an equilibrium dissociation constant (Kd) in experiment [1] of 46 nM. In other words, the double-digit nanomolar range.

The term koff denotes the first-order rate constant of dissociation. Low values mean slow dissociation, high ones fast dissociation. As a reminder, the kon is a measure of how fast the partners come together. Low values mean slow association, high ones fast association. In experiment [2], “Ceruloplasmin proteolyzed by thrombin (FIIa) (from UniProt P00450 501-906) (natural protein)” registered a Kd of 327 nM, an off-rate constant (koff) of 0.422 s⁻¹ and an on-rate (kon) of 12900 M⁻¹ s⁻¹.
